Measurements taken from US10662230B2, “Cyclic RGD cell-binding motif and uses thereof” (Spiber Technologies AB, priority 2015, dated 2020).

Assays:
[1] = Fabrication of cell culture matrices (fiber, film, foam, free-standing film); assay type: physicochemical
Experimental: Briefly, petri dishes were coated at room temperature with recombinant spider silk solution at a concentration of 0.3 mg/ml to generate films. Foams were made by rapid pipetting of the silk solution, and fibers were formed by gentle wagging in 15 ml tube followed by cutting into smaller pieces.
Free-standing films were prepared by applying of a droplet of protein solution (3 mg/ml) onto a ˜3 mm wide frame of metal wire hanging hooked up in a well of a 96-well plate and allowed to dry over night at 25° C. and 30% rh under sterile conditions.
It was observed that a spider silk protein functionalized with a disulfide-looped RGD motif self-assembles into stable matrices. As shown by the micrographs in FIG. 2a, the FNCC-4RepCT (SEQ ID NO: 13) protein could be presented as matrices in the format of fiber (upper), film (middle) and free standing film (lower). Scale bars in FIG. 2a indicate 500 μm (upper & middle) and 1000 μm (lower). […] The smooth film formats (casted and free-standing) were used in the subsequent cell adhesion experiments to rule out the effects of matrix morphology.

[2] = tested on: dermal keratinocytes (NHEK); assay: Repopulation assay (wound field); assay type: cell-based, human; details: 0.9 mm wound field, 6 days of culture
Experimental: To evaluate the ability of the different silk variants to support repopulation of an open would field, dermal keratinocytes (NHEK) were stained with Oregon green cell trace (Life Technologies) before seeded onto films of FNCC-silk (SEQ ID NO: 13) and WT-silk (SEQ ID NO: 2) at 20 000 cells/cm^2 in 24 well plates. Wound field inserts (CytoSelect™ Wound healing assay, Cell Biolabs) were added into the wells before cell seeding to generate a 0.9 mm wide open would field in the cell monolayer, while keeping the film intact. After 16 h the inserts were removed, and the repopulation process were followed each day and documented by inverted fluorescence microscopy at day 0 (insert removal), day 2 and 4. At day 6 cells were fixed and stained according to the assay protocol, and imaged by inverted bright field microscopy.
Thus, green-traced cells were seeded at high density into wells with inserts preventing cells to reach a defined part of the silk-film, the “wound field”. After monolayer formation outside the wound field, the insert was removed, and repopulation of the gap was documented during 6 days of culture, thus allowing both migration and proliferation of cells.

[3] = tested on: Human dermal microvascular endothelial cells (EC); assay: Early attachment assay, endothelial cells on silk films; assay type: cell-based; details: 1 h adhesion to film
Experimental: Human dermal microvascular endothelial cells (EC), (HDMEC, PromoCell GmbH, Germany) isolated from dermis from adult donor were grown in culture flasks coated with gelatin (Sigma Aldrich) in complete endothelial cell media MV, containing 5% fetal bovine serum (PromoCell GmbH, Germany).
(§1) Cells were harvested at passage 3-8, seeded at 20 000/cm^2 and allowed to adhere to the films or controls for 1 h in a cell incubator before gentle washing twice with pre-warmed phosphate buffered saline (PBS) followed by 10 min fixation with 96% ethanol. After three washings in water, cells were stained for 30 min with 0.1% Crystal Violet in H2O. Plates were dried after extensive washing in water.
(§2) Attachment and morphology of cells bound to the films obtained in Example 3 were documented by taking micrographs at 2× and 10× magnification in an inverted bright field microscope. The color was then dissolved in 40 μL 20% acetic acid for 10 min, and 35 μL of the solution was transferred to a 384-well plate for optical density measurement at 595 nm (TECAN Infinite M200). Wells with cells fixed without pre-washing was used as positive control. Wells with no cells were used as blank. Experiments were run in hexaplicates and repeated three times.
First, we wanted to investigate how well adherent cells attach and spread on the FNCC-silk (FNCC-4RepCT, SEQ ID NO: 13) compared to linear RGD proteins (RGD-4RepCT, SEQ ID NO: 16) and WT silk proteins (4RepCT, SEQ ID NO: 2) obtained in Example 3. Silk films of the three different variants were prepared in cell culture plates, and human primary endothelial cells (EC), mesenchymal stem cells (MSC) or keratinocytes (KC) were allowed to adhere for 1 h before fixation and staining.

[4] = tested on: primary keratinocytes (NHEK); assay: Cell viability analysis with Alamar Blue; assay type: cell-based, human; details: seeding 3 500 cells/cm^2, day 3 and day 6
Experimental: For microscopic studies, the proteins were casted as films in chamber glass slides (LabTekII). For Alamar blue experiments, where whole well coverage is desired, the cell culture wells were coated with a covering protein solution of 0.3 mg/ml for 2 h before the liquid was removed. Films and coated surfaces were allowed to dry over night at 25° C. and 30% rh under sterile conditions, then washed twice with sterile 20 mM phosphate buffer, pH 7.4, and pre-incubated with complete cell culture medium for 1 h at 37° C. with 5% CO2 before cell seeding.
Cell growth of primary keratinocytes (NHEK) after initial low seeding density 3 500 cells/cm^2 on wells coated with films of WT-silk (SEQ ID NO: 2) or FNCC-silk (SEQ ID NO: 13) in 96-well plates was monitored with Alamar Blue cell viability assay (Molecular Probes) every third day during the culture period. After 4 h incubation with Alamar blue (diluted 1:10 in cell culture medium), fluorescence intensity of 90 μL supernatants from the cultures was measured with a fluorescence plate reader (CLARIOstar, BMG Labtech) using excitation at 544 nm and emission at 595 nm. Two independent experiments were performed where films were analysed in hexaplicates. Fluorescence intensities, correlating the number of living cells in each well, were plotted over time to yield growth profiles of cells seeded on silk with different cell binding motifs.

integrin α5β1 = target: T1, integrin α5β1 (Homo sapiens, UniProt P05556+P08648); assay: Engagement of integrin α5β1 in KC (SNAKA-51/HUTS-4 staining); assay type: cell-based; details: KC adhering for 3 h
T1 construct: endogenous in cells; host or cells: human primary keratinocytes (KC)
Experimental: Primary antibody were used at the following concentrations in 1% BSA: mouse anti human vinculin (Sigma V9131) at 9.5 μg/ml, mouse-anti human beta1-integrin (activated conformation, clone HUTS-4) at 3.3 μg/mL, or mouse-anti human alpha5-integrin (ligand bound conformation, clone SNAKA-51) at 2.5 μg/mL, both Millipore.
Since the integrin α5β1 is known to selectively bind to fibronectin, we decided to investigate if this integrin is involved in the binding of KC to FNCC-silk (SEQ ID NO: 13). To do this, we selected two monoclonal antibodies, developed to specifically recognize the ligand bound conformation of α5 integrin (SNAKA-51) and the activated conformation of β1 integrin (HUTS-4), respectively, and used them in combination for staining of KC adhering to FNCC-silk for 3 h, in combination with staining with phalloidin for F-actin, as set out in Examples 6-7.

[5] = tested on: Human mesenchymal stem cells (hMSC); assay: Early attachment assay, mesenchymal stem cells on silk films; assay type: cell-based; details: MSC, 1 h adhesion to film
Experimental: Human mesenchymal stem cells (hMSC, Gibco) from bone marrow were grown in culture flasks coated with CELLstart (Gibco) in complete StemPro MSC serum free medium CTS (Gibco) containing […] fibroblast growth factor […] (Gibco) and 2 mM Glutamax (Gibco).
as §1
as §2, with “times. […]” for “times.”

T1 sequence (P08648 42-894 limits assumed): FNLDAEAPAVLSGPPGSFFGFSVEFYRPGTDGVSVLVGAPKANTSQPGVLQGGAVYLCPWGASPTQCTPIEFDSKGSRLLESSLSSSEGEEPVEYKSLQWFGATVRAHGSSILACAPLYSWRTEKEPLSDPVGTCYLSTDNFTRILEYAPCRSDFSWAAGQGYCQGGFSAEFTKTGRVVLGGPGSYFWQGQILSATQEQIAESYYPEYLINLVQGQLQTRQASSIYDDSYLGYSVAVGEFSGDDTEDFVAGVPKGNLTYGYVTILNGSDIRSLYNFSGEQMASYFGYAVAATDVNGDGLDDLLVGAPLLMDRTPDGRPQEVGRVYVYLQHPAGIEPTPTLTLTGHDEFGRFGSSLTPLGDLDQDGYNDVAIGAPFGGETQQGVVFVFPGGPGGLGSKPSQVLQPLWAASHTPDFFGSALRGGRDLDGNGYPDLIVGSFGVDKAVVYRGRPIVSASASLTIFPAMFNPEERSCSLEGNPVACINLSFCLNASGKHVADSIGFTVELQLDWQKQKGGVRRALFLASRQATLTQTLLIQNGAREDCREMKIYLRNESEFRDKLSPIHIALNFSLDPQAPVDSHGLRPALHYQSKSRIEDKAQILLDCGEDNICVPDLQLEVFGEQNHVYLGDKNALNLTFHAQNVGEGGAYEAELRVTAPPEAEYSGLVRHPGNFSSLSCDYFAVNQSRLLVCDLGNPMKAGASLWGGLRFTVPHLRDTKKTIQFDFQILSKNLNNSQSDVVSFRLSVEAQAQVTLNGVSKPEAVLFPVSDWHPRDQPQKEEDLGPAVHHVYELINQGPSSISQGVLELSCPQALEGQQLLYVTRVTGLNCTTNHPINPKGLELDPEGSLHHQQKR
T1 sequence (P08648 895-1049 partner limits assumed): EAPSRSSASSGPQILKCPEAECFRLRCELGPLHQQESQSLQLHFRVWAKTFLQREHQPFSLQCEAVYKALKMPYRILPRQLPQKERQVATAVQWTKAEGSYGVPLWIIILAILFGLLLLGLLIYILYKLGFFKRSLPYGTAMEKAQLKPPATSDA
T1 sequence (P05556 21-798): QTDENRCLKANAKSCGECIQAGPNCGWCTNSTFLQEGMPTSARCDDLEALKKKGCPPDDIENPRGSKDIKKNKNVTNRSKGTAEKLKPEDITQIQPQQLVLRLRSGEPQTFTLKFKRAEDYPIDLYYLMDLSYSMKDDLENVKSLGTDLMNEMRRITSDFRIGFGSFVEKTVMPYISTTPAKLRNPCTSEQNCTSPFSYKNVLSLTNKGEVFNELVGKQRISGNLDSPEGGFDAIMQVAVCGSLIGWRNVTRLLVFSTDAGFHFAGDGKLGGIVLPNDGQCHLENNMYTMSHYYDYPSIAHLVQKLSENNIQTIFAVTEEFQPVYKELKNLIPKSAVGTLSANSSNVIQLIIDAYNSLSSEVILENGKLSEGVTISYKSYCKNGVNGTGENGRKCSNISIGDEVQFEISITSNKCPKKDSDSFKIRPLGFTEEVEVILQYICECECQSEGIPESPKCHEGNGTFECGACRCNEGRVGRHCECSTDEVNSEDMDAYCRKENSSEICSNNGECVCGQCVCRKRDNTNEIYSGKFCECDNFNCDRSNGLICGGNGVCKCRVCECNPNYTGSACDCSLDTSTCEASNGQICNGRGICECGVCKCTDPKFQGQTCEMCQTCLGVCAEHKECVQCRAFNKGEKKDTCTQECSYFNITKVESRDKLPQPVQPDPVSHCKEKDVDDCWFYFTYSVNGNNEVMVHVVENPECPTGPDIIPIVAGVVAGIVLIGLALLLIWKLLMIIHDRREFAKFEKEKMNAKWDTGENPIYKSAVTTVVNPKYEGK

B1: FNCC-silk: recombinant spider silk protein 4RepCT with N-terminal cysteine-looped RGD motif CTGRGDSPAC (SEQ ID NO: 10) (protein)
chain: GPNSCTGRGDSPACGSASGQGGYGGLGQGGYGQGAGSSAAAAAAAAAAAAGGQGGQGQGGYGQGSGGSAAAAAAAAAAAAAAAGRGQGGYGQGSGGNAAAAAAAAAAAAAAAGQGGQGGYGRQSQGAGSAAAAAAAAAAAAAAGSGQGGYGGQGQGGYGQSSASASAAASAASTVANSVSRLSSPSAVSRVSSAVSSLVSNGQVNMAALPNIISNISSSVSASAPGASGCEVIVQALLEVITALVQIVSSSSVGYINPSAVNQITNVVANAMAQVMG
modifications: cyclic disulfide loop; Fusion protein; DISULFID (5)..(14)
formation of free-standing films [1]: possible to form free-standing films | stability and integrity of fibers, film and foam [1]: higher stability and integrity than noted for linear RGD silk proteins (RGD-4RepCT, SEQ ID NO: 16) and WT silk proteins | repopulation of the wound field [2]: efficiently repopulated the wound field on FNCC-silk, which was almost completely covered with cells at the end of the experiment | attachment seen in micrographs ([3]; crystal violet staining): clear improvement of attachment is seen on the FNCC films compared to both RGD and WT | OD of crystal violet dissolved from adhered cells (number of bound cells) ([3]; seeding 20 000/cm2): significantly more cells had bound to the FNCC-silk after 1 h compared to WT silk | OD of crystal violet dissolved from adhered cells (number of bound cells) ([3]; seeding 20 000/cm2, listed as FNCC): Significantly more EC had attached to FNCC also compared to RGD silk | level of viable cells (Alamar Blue fluorescence) [4]: increased level of viable cells on FNCC-silk compared to WT-silk | staining for ligand bound α5 integrin and activated β1 integrin (integrin α5β1): week but distinct staining pattern resembling the pattern seen when staining for vinculin | attachment seen in micrographs ([5]; crystal violet staining): clear improvement of attachment is seen on the FNCC films compared to both RGD and WT | OD of crystal violet dissolved from adhered cells (number of bound cells) ([5]; seeding 20 000/cm2, serum-free): significantly more cells had bound to the FNCC-silk after 1 h compared to WT silk
